Experimental findings from paper PMC11849937, “Atractylenolide I inhibits angiogenesis and reverses sunitinib resistance in clear cell renal cell carcinoma through ATP6V0D2-mediated autophagic degradation of EPAS1/HIF2α” (Autophagy, 2024) are described below.

For the assay, the target named is T1, His-VPS41 (recombinant, bacterial) (UniProt P49754 1-854).
T1 construct: VPS41; The only His-VPS41 plasmid that the methods name is in the vector pGMLV; source: BL21 (Rosetta) bacterial cells, purified (His beads)
T1 sequence (looked up): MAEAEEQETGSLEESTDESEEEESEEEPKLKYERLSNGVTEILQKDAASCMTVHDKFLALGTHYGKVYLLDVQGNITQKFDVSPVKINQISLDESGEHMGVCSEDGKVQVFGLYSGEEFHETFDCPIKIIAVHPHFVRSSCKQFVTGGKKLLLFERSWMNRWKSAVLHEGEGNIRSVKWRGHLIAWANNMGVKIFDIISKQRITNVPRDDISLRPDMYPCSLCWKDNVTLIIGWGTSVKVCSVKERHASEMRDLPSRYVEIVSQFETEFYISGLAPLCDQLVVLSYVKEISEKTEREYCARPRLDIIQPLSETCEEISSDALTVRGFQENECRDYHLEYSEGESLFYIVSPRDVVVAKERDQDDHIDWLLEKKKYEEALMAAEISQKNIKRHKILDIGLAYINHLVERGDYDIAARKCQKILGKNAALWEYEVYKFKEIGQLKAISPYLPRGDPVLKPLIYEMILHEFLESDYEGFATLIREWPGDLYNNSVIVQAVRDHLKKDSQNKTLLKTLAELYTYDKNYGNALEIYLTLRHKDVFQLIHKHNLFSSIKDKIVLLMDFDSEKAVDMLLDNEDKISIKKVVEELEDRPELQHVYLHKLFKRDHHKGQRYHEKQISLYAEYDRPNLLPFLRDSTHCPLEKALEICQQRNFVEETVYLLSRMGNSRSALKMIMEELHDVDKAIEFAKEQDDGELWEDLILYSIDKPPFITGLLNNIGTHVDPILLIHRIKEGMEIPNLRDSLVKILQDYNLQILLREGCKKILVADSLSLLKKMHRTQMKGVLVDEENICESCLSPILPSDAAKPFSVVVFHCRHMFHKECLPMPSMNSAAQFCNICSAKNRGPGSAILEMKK
In words: pull-down; GST-tagged protein (2.5 ug) immobilised on glutathione-Sepharose beads, incubated with His-RAB7, His-VPS41 or both in affinity-isolation buffer with PMSF; western blot. The settings on record: both partners purified. In general terms: A western blot detects proteins with antibodies after separation by electrophoresis.

B1: GST-tagged ATP6V0D2 (natural protein)
chain: not shown
notes: ATP6V0D2, ATPase H+ transporting V0 subunit d2; Construct bought from Tsingke Biotechnology; also called GST-ATP6V0D2; source: BL21 (Rosetta) bacterial cells, purified (glutathione-Sepharose beads)
Regarding B1, the binding result is on record as “binds”.
